# Measured values from article PMC8282340 (2021).
# Read-outs that look alike come from different tables or passages of the source.
# B1: fluorescent NOXA peptide (peptide)
# chain: AELEVECATQLRRFGDKLNFRQKLL
# HELM: PEPTIDE1{[O=C1OC2(c3ccc(O)cc3Oc3cc(O)ccc32)c2ccc(C(=O)[*:2])cc21].[O=C(CCCCCN[*:1])[*:2]].A.E.L.E.V.E.C.A.T.Q.L.R.R.F.G.D.K.L.N.F.R.Q.K.L.L.[am]}$$$$V2.0
# SMILES: CC(C)C[C@H](NC(=O)[C@H](CC(C)C)NC(=O)[C@H](CCCCN)NC(=O)[C@H](CCC(N)=O)NC(=O)[C@H](CCCNC(=N)N)NC(=O)[C@H](Cc1ccccc1)NC(=O)[C@H](CC(N)=O)NC(=O)[C@H](CC(C)C)NC(=O)[C@H](CCCCN)NC(=O)[C@H](CC(=O)O)NC(=O)CNC(=O)[C@H](Cc1ccccc1)NC(=O)[C@H](CCCNC(=N)N)NC(=O)[C@H](CCCNC(=N)N)NC(=O)[C@H](CC(C)C)NC(=O)[C@H](CCC(N)=O)NC(=O)[C@@H](NC(=O)[C@H](C)NC(=O)[C@H](CS)NC(=O)[C@H](CCC(=O)O)NC(=O)[C@@H](NC(=O)[C@H](CCC(=O)O)NC(=O)[C@H](CC(C)C)NC(=O)[C@H](CCC(=O)O)NC(=O)[C@H](C)NC(=O)CCCCCNC(=O)c1ccc2c(c1)C(=O)OC21c2ccc(O)cc2Oc2cc(O)ccc21)C(C)C)[C@@H](C)O)C(N)=O
# B2: fluorescent BID peptide (peptide)
# chain: QEDIIRNIARHLAQVGDSMDR
# HELM: PEPTIDE1{[O=C1OC2(c3ccc(O)cc3Oc3cc(O)ccc32)c2ccc(C(=O)[*:2])cc21].[O=C(CCCCCN[*:1])[*:2]].Q.E.D.I.I.R.N.I.A.R.H.L.A.Q.V.G.D.S.M.D.R.[am]}$$$$V2.0
# SMILES: CC[C@H](C)[C@H](NC(=O)[C@H](CC(N)=O)NC(=O)[C@H](CCCNC(=N)N)NC(=O)[C@@H](NC(=O)[C@@H](NC(=O)[C@H](CC(=O)O)NC(=O)[C@H](CCC(=O)O)NC(=O)[C@H](CCC(N)=O)NC(=O)CCCCCNC(=O)c1ccc2c(c1)C(=O)OC21c2ccc(O)cc2Oc2cc(O)ccc21)[C@@H](C)CC)[C@@H](C)CC)C(=O)N[C@@H](C)C(=O)N[C@@H](CCCNC(=N)N)C(=O)N[C@@H](Cc1c[nH]cn1)C(=O)N[C@@H](CC(C)C)C(=O)N[C@@H](C)C(=O)N[C@@H](CCC(N)=O)C(=O)N[C@H](C(=O)NCC(=O)N[C@@H](CC(=O)O)C(=O)N[C@@H](CO)C(=O)N[C@@H](CCSC)C(=O)N[C@@H](CC(=O)O)C(=O)N[C@@H](CCCNC(=N)N)C(N)=O)C(C)C
# Assays:
# Experiment in all cases: FP
# [1] = target: GST only (Schistosoma japonicum)
# [2] = target: human BCL-2 fused to the N-terminal half of T7 RNAP (human)
# Sequence of human BCL-2 fused to the N-terminal half of T7 RNAP (human) (chain, as listed by the source): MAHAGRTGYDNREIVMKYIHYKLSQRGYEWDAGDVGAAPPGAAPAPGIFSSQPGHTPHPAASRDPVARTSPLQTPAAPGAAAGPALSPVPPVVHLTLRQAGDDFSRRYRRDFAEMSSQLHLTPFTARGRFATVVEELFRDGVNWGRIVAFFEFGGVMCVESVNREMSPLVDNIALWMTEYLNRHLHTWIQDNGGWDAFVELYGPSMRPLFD
# [3] = target: L3-3
# [4] = target: L4-3
# [5] = target: T1, hsMCL-1 variant L1-1 (human, UniProt Q07820)
# [6] = target: L3-1
# [7] = target: B3-1
# [8] = target: B1-3
# [9] = target: B2-1
# [10] = target: B4-2
# [11] = target: B3-1; remark: listed apart in the source
# [12] = target: B1-3; remark: listed apart in the source
# [13] = target: B2-1; remark: listed apart in the source
# [14] = target: B4-2; remark: listed apart in the source
# [15] = target: L3-3; remark: listed apart in the source
# [16] = target: L4-3; remark: listed apart in the source
# [17] = target: T1, hsMCL-1 variant L1-1; remark: listed apart in the source
# [18] = target: L3-1; remark: listed apart in the source
Binder,Kd [1] [nM],Kd [2] [nM],Kd [3] [nM],Kd [4] [nM],Kd [5] [nM],Kd [6] [nM],Kd [7] [nM],Kd [8] [nM],Kd [9] [nM],Kd [10] [nM],Kd [11] [nM],Kd [12] [nM],Kd [13] [nM],Kd [14] [nM],Kd [15] [nM],Kd [16] [nM],Kd [17] [nM],Kd [18] [nM]
B1,> 1000,948,> 1000,> 1000,489,949,53.4,137,340,186,,,,,,,,
B2,> 1000,87.6,,,,,,,,,33.4,7.21,43.3,5.16,9.29,18.7,5.38,25.3
